# Data taken from PMC4787810 (Nucleic Acids Research, 2015).
# Read-outs that look alike come from different tables or passages of the source.
# T1: HpDnaB replicative helicase (Helicobacter pylori, UniProt O25916 1-488)
# T1 sequence: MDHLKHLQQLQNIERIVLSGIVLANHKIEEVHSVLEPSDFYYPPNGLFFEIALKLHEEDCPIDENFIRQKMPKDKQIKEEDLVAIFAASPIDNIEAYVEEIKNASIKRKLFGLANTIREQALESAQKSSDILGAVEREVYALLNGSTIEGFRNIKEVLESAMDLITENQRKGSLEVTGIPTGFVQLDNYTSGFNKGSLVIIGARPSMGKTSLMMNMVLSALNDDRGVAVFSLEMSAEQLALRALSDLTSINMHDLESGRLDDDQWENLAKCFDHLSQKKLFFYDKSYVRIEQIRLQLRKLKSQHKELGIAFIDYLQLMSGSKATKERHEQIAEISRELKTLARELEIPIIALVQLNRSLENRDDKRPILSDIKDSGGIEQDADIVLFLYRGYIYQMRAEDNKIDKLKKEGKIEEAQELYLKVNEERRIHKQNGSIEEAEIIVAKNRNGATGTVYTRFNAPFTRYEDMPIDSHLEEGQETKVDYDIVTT
# T2: HpDnaB replicative helicase;HpDnaG helicase-binding domain (HpDnaGHBD) (Helicobacter pylori;Helicobacter pylori …, UniProt O25916;P56064 1-488;415-559, |)
# T2 sequence 1: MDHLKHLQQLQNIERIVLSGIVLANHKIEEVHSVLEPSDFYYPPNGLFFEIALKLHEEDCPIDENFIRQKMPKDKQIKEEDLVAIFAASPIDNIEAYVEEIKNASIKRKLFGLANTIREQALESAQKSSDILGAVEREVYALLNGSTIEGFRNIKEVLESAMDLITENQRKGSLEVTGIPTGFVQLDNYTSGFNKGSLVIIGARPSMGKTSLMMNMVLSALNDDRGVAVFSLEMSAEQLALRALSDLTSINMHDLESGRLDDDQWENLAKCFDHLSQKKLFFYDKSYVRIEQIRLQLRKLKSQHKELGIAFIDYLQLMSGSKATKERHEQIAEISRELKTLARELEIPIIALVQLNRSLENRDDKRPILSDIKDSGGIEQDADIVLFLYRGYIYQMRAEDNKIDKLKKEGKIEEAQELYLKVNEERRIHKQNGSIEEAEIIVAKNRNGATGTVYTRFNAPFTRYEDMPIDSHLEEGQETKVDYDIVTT
# T2 sequence 2: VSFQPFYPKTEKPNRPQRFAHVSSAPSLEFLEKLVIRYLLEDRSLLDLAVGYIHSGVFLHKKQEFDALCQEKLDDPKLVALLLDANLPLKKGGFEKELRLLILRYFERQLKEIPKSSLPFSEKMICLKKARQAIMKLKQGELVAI
# B1: HpDnaB^Δ9 (N-terminal deletion mutant starting at residue 10) (domain or fragment, Helicobacter pylori, UniProt O25916 10-488, looked up)
# chain: LQNIERIVLSGIVLANHKIEEVHSVLEPSDFYYPPNGLFFEIALKLHEEDCPIDENFIRQKMPKDKQIKEEDLVAIFAASPIDNIEAYVEEIKNASIKRKLFGLANTIREQALESAQKSSDILGAVEREVYALLNGSTIEGFRNIKEVLESAMDLITENQRKGSLEVTGIPTGFVQLDNYTSGFNKGSLVIIGARPSMGKTSLMMNMVLSALNDDRGVAVFSLEMSAEQLALRALSDLTSINMHDLESGRLDDDQWENLAKCFDHLSQKKLFFYDKSYVRIEQIRLQLRKLKSQHKELGIAFIDYLQLMSGSKATKERHEQIAEISRELKTLARELEIPIIALVQLNRSLENRDDKRPILSDIKDSGGIEQDADIVLFLYRGYIYQMRAEDNKIDKLKKEGKIEEAQELYLKVNEERRIHKQNGSIEEAEIIVAKNRNGATGTVYTRFNAPFTRYEDMPIDSHLEEGQETKVDYDIVTT
# B2: HpDnaB^L4A (enzyme, Helicobacter pylori, UniProt O25916 1-488, looked up)
# chain: MDHAKHLQQLQNIERIVLSGIVLANHKIEEVHSVLEPSDFYYPPNGLFFEIALKLHEEDCPIDENFIRQKMPKDKQIKEEDLVAIFAASPIDNIEAYVEEIKNASIKRKLFGLANTIREQALESAQKSSDILGAVEREVYALLNGSTIEGFRNIKEVLESAMDLITENQRKGSLEVTGIPTGFVQLDNYTSGFNKGSLVIIGARPSMGKTSLMMNMVLSALNDDRGVAVFSLEMSAEQLALRALSDLTSINMHDLESGRLDDDQWENLAKCFDHLSQKKLFFYDKSYVRIEQIRLQLRKLKSQHKELGIAFIDYLQLMSGSKATKERHEQIAEISRELKTLARELEIPIIALVQLNRSLENRDDKRPILSDIKDSGGIEQDADIVLFLYRGYIYQMRAEDNKIDKLKKEGKIEEAQELYLKVNEERRIHKQNGSIEEAEIIVAKNRNGATGTVYTRFNAPFTRYEDMPIDSHLEEGQETKVDYDIVTT
# B3: HpDnaB^Q8A (enzyme, Helicobacter pylori, UniProt O25916 1-488, looked up)
# chain: MDHLKHLAQLQNIERIVLSGIVLANHKIEEVHSVLEPSDFYYPPNGLFFEIALKLHEEDCPIDENFIRQKMPKDKQIKEEDLVAIFAASPIDNIEAYVEEIKNASIKRKLFGLANTIREQALESAQKSSDILGAVEREVYALLNGSTIEGFRNIKEVLESAMDLITENQRKGSLEVTGIPTGFVQLDNYTSGFNKGSLVIIGARPSMGKTSLMMNMVLSALNDDRGVAVFSLEMSAEQLALRALSDLTSINMHDLESGRLDDDQWENLAKCFDHLSQKKLFFYDKSYVRIEQIRLQLRKLKSQHKELGIAFIDYLQLMSGSKATKERHEQIAEISRELKTLARELEIPIIALVQLNRSLENRDDKRPILSDIKDSGGIEQDADIVLFLYRGYIYQMRAEDNKIDKLKKEGKIEEAQELYLKVNEERRIHKQNGSIEEAEIIVAKNRNGATGTVYTRFNAPFTRYEDMPIDSHLEEGQETKVDYDIVTT
# B4: HpDnaB^E80A (enzyme, Helicobacter pylori, UniProt O25916 1-488, looked up)
# chain: MDHLKHLQQLQNIERIVLSGIVLANHKIEEVHSVLEPSDFYYPPNGLFFEIALKLHEEDCPIDENFIRQKMPKDKQIKEADLVAIFAASPIDNIEAYVEEIKNASIKRKLFGLANTIREQALESAQKSSDILGAVEREVYALLNGSTIEGFRNIKEVLESAMDLITENQRKGSLEVTGIPTGFVQLDNYTSGFNKGSLVIIGARPSMGKTSLMMNMVLSALNDDRGVAVFSLEMSAEQLALRALSDLTSINMHDLESGRLDDDQWENLAKCFDHLSQKKLFFYDKSYVRIEQIRLQLRKLKSQHKELGIAFIDYLQLMSGSKATKERHEQIAEISRELKTLARELEIPIIALVQLNRSLENRDDKRPILSDIKDSGGIEQDADIVLFLYRGYIYQMRAEDNKIDKLKKEGKIEEAQELYLKVNEERRIHKQNGSIEEAEIIVAKNRNGATGTVYTRFNAPFTRYEDMPIDSHLEEGQETKVDYDIVTT
# Tests used:
# [1] = molecular target: the molecule itself; test: SEC-MALS
# [2] = molecular target: the molecule itself; test: cross-linking
# [3] = molecular target: T1, HpDnaB replicative helicase; test: fluorescence anisotropy
# [4] = molecular target: T1, HpDnaB replicative helicase; test: fluorescence anisotropy; remark: listed apart in the source
# [5] = molecular target: T2, HpDnaB replicative helicase;HpDnaG …; test: fluorescence anisotropy
# [6] = molecular target: T1, HpDnaB replicative helicase; test: fluorescence anisotropy; remark: listed apart in the source
# [7] = molecular target: T2, HpDnaB replicative helicase;HpDnaG …; test: fluorescence anisotropy; remark: listed apart in the source
# [8] = molecular target: T1, HpDnaB replicative helicase; test: fluorescence anisotropy; remark: listed apart in the source
binder,measurement,setting,value
B1,stoichiometry N,[1],~6
same,stoichiometry N,[2],6
B2,binding result,[1],binds
B3,stoichiometry N,[2],6
B4,binding result,[1],binds
TTTTTTTTTTTTTTTTTTTTTTTTTTTTTTTTTTTTTTTTTTTTTTTTTT (ssDNA) [50dT],Kd,[3],70 ± 6 nM
same,Kd,[4],1.8 ± 0.2 nM
TTTTTTTTTTTTTTTTTTTT (ssDNA) [20dT],Kd,[5],8.3 ± 0.6 nM
same,Kd,[6],15 ± 1 nM
same,Kd,[7],1 ± 0.1 nM
same,Kd,[8],3.1 ± 0.1 nM
